Measurements reported in patent US6072028, “EPR-1 proteins, polypeptides, and nucleic acid molecules encoding same” (The Scripps Research Institute, dated 2000).

What was measured:
coagulation factor Xa [1] = biological target: T1, coagulation factor Xa (human, UniProt P00742); assay: saturation binding of ^125 I-Xa to HuT 78* cells, 2.5 mM CaCl2
Description: The procedures for the isolation, characterization, and ^125I-labelling of factor Xa were as described previously by Altieri, et al., *J. Biol. Chem.* 264: 2969 (1989). The interaction of ^125I-Xa with HuT 78* cells was analyzed by incubating increasing concentrations of ^125I-Xa (0.45 to 36 nM) with cell suspension at 1.5 to 2×10^7/ml in the presence of 2.5 mM CaCl_2 for 20 minutes at room temperature. At the end of the incubation, the reaction was terminated by centrifugation of aliquots of the cell suspension at 12,000×g for 2 minutes through a mixture of silicone oil to separate free from cell-associated radioactivity. Nonspecific binding was quantified in the presence of 50-fold molar excess of unlabelled factor Xa added at the start of the incubation reaction, and was subtracted from the total to yield net specific binding. In some studies, aliquots of HuT 78* cells were preincubated with 50 µg/ml of mAb 9D4 for 30 minutes at room temperature before the addition of serial concentrations of ^125I-Xa.
HuT 78* cells reacting with the rabbit polyclonal antiserum B78.9 were isolated to 94.2% purity by fluorescence sorting and cloned by limiting dilution. […] The reaction was terminated by centrifugation through mixture of silicone oils and ^125I-Xa specific binding to HuT 78* cells was calculated in the presence or absence of anti-EPR-1 mAb 9D4.

coagulation factor Xa [2] = biological target: T1, coagulation factor Xa; assay: saturation binding of ^125 I-factor Xa (0.45-36 nM) to EPR-1 CHO transfectants, 2.5 mM CaCl2
Description: In FIG. A, wild-type (WT) CHO cells (closed squares) or EPR-1 CHO transfectants (closed circles) were incubated with increasing concentrations of ^125I-factor Xa (0.45–36 nM) for 15 minutes at 22° C. In the presence of 2.5 mM CaCl_2. Non-specific binding was assessed in the presence of a 50-fold molar excess of unlabeled factor Xa and was subtracted from the total to calculate net specific binding. Data are the mean±S.E.M. of two independent experiments. ^125I-factor Xa bound at saturation (27 nM) to EPR-1 CHO transfectants corresponded to 729,000±102,000 molecules/cell. […] Thrombin formation in the presence or in the absence of anti-EPR-1 mAb 9D4 (Altieri, et al., Id. (1990)) was assessed by a sensitive clotting assay as described (Altieri, et al., Id. (1989)). Data are expressed as mean±S.E.M. of two independent experiments.
The experimental procedures for the isolation, characterization and ^125I-labeling of factor Xa have been described previously (Altieri, et al., Id. (1989)). […] In the presence of 2.5 mM CaCl_2, before separation of free from cell-associated radioactivity by centrifugation through mixture of silicone oil (Dow Corning, New Bedford, Mass.) at 15,000 xg for 5 minutes at 22° C. Non-specific binding was assessed in the presence of a 50-fold molar excess of unlabeled factor Xa and was subtracted from the total to calculate net specific binding. […]

Kd (coagulation factor Xa [1]): 10 to 20 nM
Kd (coagulation factor Xa [2]): 10 to 15 nM
B1: Effector cell Protease Receptor-1 (EPR-1), on the cell surface (receptor)
chain: MTSRGFQRSCNNPPCSSMTGRRANQIHHLTPDFSLRELLPPKKAGTWADCVSPPCGERDRCEGWADRHTACSSPASTCQVHTQDCDSLNNMRSRHIHCGRLCHANKAVSSSKRDTAFFLPHFSPGKPGNQNSKNEPPKKRERERSSHCYPAAPAAQAEAPLVPLSRQNKSTVETSNLKMLISFPKTLLRGPQEGWWHQGINPGSGAATLGPGSSERPQSIEASCSMARRTFFAVSSNSFFLLLVSFAILFLALSLSSFKNSPRVNSSNCFLTERKAQPDECFLCSSMGSSSGSQPSSSLKQKKHWAKSGSFSVGQWMKPASAIRSGVQRSPPRRASS
